According to EP4552657A1, “RADIOPHARMACEUTICAL COMPLEXES AND COMBINATIONS” (priority 2023, dated 2025):

T1: human recombinant DLL3 antigen (Homo sapiens, UniProt Q9NYJ7)
T1 sequence (Q9NYJ7 27-618): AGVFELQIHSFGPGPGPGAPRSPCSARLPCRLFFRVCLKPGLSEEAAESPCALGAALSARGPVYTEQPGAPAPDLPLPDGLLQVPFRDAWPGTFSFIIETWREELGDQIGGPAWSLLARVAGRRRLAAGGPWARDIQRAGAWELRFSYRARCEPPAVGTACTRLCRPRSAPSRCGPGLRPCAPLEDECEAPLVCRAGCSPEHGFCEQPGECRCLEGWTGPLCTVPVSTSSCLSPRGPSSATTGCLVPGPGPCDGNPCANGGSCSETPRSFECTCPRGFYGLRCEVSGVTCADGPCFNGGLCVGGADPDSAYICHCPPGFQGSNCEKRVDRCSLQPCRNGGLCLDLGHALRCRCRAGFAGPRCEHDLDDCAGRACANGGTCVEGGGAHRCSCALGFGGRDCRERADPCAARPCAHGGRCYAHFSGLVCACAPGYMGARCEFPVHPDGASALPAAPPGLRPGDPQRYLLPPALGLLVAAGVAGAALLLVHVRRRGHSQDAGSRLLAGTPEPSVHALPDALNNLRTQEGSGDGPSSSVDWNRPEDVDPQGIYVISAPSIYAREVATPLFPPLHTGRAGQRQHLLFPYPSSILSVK

T2: recombinant human DLL3 (Homo sapiens, UniProt Q9NYJ7)
T2 sequence (Q9NYJ7 27-618): T1 sequence (Q9NYJ7 27-618)

B1: Rovalpituzumab-DOTA (conjugate, chains of the INN, looked up)
VH: QVQLVQSGAEVKKPGASVKVSCKASGYTFTNYGMNWVRQAPGQGLEWMGWINTYTGEPTYADDFKGRVTMTTDTSTSTAYMELRSLRSDDTAVYYCARIGDSSPSDYWGQGTLVTVSS
VL: EIVMTQSPATLSVSPGERATLSCKASQSVSNDVVWYQQKPGQAPRLLIYYASNRYTGIPARFSGSGSGTEFTLTISSLQSEDFAVYYCQQDYTSPWTFGQGTKLEIK
modifications: DOTA chelator conjugate
B2: Ac-225-macropa-Rovalpituzumab (conjugate, chains of the INN, looked up)
VH: B1 VH
VL: B1 VL
modifications: macropa chelator, actinium-225

Legend:
[1] = molecular target: T1, human recombinant DLL3 antigen; experiment: ELISA, binding potency to human recombinant DLL3 antigen; settings: compared to unconjugated Rovalpituzumab
Protocol: The relevant antigen was immobilized on ELISA plate by absorption. The plate was washed (PBS with 0.1% Tween 20) and incubated with blocking buffer (PBS + 3% BSA) for 2 h ± 1 h to reduce unspecific binding. Relevant antibodies and ACCs diluted in assay buffer (PBS with 0.05% Tween 20 + 1.5% BSA). The blocking buffer was discarded, and the antibodies and ACCs and controls were applied in triplicates to the plate according to a plate set-up defined in each protocol. After incubation for 1 h ± 30 min at RT, the plate was washed. A horse radish peroxidase (HRP)-conjugated secondary antibody binding specifically to the primary mAb (anti-human IgG-HRP) was added to the plate. After incubation for 1 hour ± 30 min at RT, the plate was washed. A chromogenic substrate (2,2'-azino-bis (3-ethylbenzothiazoline-6-sulphonic acid) (ABTS)), for HRP leading to the formation of a green color was added to the plate and used for detection. The absorbance of the colored reaction product was measured with an absorbance plate reader, e.g. EnVision 2103 Multilabel Reader from Perkin Elmer, or iMark Microplate Absorbance Reader from Bio-Rad.
Absorbance against the log of the antibody concentration was plotted on the GraphPad Prism software.
The binding potency of Rovalpituzumab-macropa, Rovalpituzumab-DOTA was compared to unconjugated Rovalpituzumab by using an ELISA assay. […]

recombinant human DLL3 = molecular target: T2, recombinant human DLL3; experiment: Immunoreactive fraction (IRF), binding to DLL3-coated beads; settings: 20 kBq/µg
Protocol: Shortly after completion of the radiolabeling, the binding was assessed by measuring the fraction of radiolabeled antibody-chelator conjugate bound to relevant antigen coated magnetic beads (Thermo Fisher Scientific). In short, beads were placed in 2 mL Eppendorf tubes in 90 µL buffer (PBS/0.1% Tween 20/1% BSA). The radiolabeled compounds were diluted to 5 Bq/µL in buffer and 50 Bq were added to each bead-containing tube. The binding lasted for 60 min while shaking at 750 rpm at room temperature. After completion of the binding step, magnet (DynaMag-2) was used to separate the beads from […] supernatant. The radio activities in the supernatant and in the beads of each sample were measured using a high purity Germanium detector (Ortec). […] Total binding was defined as [(activity in beads […])/ (total activity)] × 100.

Molecule | EC50 [1] | max absorbance value [1] | amount of DLL3-coated beads at which the maximum binding was achieved (recombinant human DLL3) [µg] | maximum binding (IRF) (recombinant human DLL3; 10 µg of DLL3-coated beads) [%]
B1 | increased EC50 | Slightly lower max absorbance value | – | –
B2 | – | – | 10 | 86
